{"source": "patent US20200109188A1", "about": "(AstraZeneca / MedImmune, published 2020)", "binders": {"B1": {"name": "Antibody 3 (antibody, V domains shown)", "VH": "QVQLQESGPGLVKPSQTLSLTCAISGDSVSSNNAVWNWIRQSPSRGLEWLGRTYYRSKWYNDYAESVKSRITVNPDTSKNQFSLHLKSVTPEDTAVFYCVRSGHITVFGVNVDAFDMWGQGTMVTVSS", "VL": "DIQMTQSPSSLSASVGDRVTITCRTSQSLSSYLHWYQQKPGKAPKLLIYAASSLQSGVPSRFSGSGSGTDFTLTISSLQPEDFATYYCQQSRTFGQGTKVEIK"}}, "key": {"[1]": {"target": "HA subtype H12 (A/duck/Alberta/60/76 (H12N5)) on HEK cells (influenza A virus, UniProt P03446 17-564)", "sequence (P03446 17-564)": "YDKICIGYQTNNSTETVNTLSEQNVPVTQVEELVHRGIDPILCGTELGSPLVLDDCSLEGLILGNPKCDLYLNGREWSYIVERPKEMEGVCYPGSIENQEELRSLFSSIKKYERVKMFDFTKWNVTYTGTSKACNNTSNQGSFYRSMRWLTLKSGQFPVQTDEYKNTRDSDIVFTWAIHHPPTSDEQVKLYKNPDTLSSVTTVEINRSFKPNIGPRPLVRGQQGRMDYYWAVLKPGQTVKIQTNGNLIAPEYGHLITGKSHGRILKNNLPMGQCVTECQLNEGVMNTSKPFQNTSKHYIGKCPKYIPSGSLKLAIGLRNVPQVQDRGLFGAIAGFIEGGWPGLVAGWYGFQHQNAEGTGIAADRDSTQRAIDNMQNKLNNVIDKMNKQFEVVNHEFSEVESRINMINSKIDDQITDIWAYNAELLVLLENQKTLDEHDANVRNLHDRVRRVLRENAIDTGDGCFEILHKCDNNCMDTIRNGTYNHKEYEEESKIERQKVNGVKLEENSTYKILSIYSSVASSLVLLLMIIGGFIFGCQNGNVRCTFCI", "experiment": "flow cytometry, HA-transfected HEK cells"}, "[2]": {"target": "HA subtype H13 (A/gull/Maryland/704/77 (H13N6)) on HEK cells (influenza A virus, UniProt P13103 19-566)", "sequence (P13103 19-566)": "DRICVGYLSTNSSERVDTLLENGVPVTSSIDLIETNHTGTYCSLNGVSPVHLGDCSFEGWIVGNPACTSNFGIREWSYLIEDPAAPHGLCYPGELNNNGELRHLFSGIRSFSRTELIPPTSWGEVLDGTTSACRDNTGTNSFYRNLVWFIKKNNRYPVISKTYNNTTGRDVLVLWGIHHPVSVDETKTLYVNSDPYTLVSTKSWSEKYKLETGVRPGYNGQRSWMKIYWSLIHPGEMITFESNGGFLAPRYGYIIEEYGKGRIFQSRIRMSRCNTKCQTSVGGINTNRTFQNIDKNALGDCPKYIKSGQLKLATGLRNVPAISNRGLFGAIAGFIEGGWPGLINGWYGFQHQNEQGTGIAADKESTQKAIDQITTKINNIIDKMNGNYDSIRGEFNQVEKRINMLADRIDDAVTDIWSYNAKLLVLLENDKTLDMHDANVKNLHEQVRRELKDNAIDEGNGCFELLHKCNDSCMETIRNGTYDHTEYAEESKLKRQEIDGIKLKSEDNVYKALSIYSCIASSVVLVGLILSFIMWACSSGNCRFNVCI", "experiment": "flow cytometry, HA-transfected HEK cells, 5 ug/ml antibody"}, "[3]": {"target": "HA subtype H4 (A/duck/Czechoslovakia/56 (H4N6)) on HEK cells (influenza A virus, UniProt P19696 17-564)", "sequence (P19696 17-564)": "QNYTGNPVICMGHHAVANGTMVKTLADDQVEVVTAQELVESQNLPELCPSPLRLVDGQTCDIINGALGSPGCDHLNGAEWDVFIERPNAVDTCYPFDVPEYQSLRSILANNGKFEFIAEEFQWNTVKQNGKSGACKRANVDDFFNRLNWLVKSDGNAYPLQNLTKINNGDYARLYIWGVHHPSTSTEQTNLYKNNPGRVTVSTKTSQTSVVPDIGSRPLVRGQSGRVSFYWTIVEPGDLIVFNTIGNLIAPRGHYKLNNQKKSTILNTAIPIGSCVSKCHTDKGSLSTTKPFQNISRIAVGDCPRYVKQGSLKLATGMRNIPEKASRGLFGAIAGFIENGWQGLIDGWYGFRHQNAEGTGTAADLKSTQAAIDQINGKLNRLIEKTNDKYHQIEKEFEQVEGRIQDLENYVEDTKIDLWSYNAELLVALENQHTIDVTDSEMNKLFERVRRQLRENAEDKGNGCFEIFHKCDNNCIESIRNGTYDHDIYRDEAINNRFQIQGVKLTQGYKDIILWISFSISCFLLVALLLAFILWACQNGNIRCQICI", "experiment": "flow cytometry, HA-transfected HEK cells, 5 ug/ml antibody"}, "[4]": {"target": "HA subtype H14 (A/mallard/Astrakhan/263/82 (H14N5)) on HEK cells (influenza A virus, UniProt P26136 18-568)", "sequence (P26136 18-568)": "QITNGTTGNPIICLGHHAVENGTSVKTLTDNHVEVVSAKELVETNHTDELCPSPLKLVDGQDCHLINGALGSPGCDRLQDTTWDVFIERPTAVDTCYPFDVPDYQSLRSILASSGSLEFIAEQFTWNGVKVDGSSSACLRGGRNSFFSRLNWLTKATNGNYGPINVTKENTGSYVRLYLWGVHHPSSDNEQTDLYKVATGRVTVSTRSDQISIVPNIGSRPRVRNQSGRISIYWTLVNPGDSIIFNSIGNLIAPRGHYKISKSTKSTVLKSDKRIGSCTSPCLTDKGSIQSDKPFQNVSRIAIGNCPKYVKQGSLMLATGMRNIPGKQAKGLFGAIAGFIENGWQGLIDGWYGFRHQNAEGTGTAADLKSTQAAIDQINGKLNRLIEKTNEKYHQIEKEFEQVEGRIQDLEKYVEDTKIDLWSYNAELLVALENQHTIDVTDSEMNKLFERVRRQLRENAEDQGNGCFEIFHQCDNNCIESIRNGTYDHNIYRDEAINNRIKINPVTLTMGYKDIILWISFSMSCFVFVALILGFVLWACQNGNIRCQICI", "experiment": "flow cytometry, HA-transfected HEK cells, 5 ug/ml antibody"}, "[5]": {"target": "HA subtype H10 (A/chicken/Germany/N49 (H10N7)) on HEK cells (influenza A virus, UniProt P12581 17-561)", "sequence (P12581 17-561)": "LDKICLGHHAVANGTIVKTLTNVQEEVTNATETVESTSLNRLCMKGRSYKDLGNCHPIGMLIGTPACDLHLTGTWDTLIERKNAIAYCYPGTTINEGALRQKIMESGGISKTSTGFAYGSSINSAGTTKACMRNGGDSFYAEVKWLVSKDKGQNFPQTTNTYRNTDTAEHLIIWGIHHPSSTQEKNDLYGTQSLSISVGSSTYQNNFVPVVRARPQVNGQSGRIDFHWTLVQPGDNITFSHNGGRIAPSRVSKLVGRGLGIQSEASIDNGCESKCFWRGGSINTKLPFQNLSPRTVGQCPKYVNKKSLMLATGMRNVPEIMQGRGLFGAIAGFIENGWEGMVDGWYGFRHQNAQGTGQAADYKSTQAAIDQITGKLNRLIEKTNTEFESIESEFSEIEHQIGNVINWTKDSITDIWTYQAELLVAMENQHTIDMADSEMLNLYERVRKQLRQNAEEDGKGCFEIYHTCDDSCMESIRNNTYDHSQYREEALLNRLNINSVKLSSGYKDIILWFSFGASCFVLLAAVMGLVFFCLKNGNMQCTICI", "experiment": "flow cytometry, HA-transfected HEK cells, 5 ug/ml antibody"}, "[6]": {"target": "HA of ca A/New Caledonia/20/99 (H1N1) virus (influenza A virus)", "experiment": "cell-based or functional assay"}, "[7]": {"target": "HA of ca A/Sydney/5/97 (H3N2) virus (influenza A virus)", "experiment": "cell-based or functional assay"}, "[8]": {"target": "HA of A/New Jersey/8/76 (H1N1) virus (influenza A virus)", "experiment": "cell-based or functional assay"}, "[9]": {"target": "HA of ca A/Hong Kong/213/03 (H5N1) virus (influenza A virus)", "experiment": "cell-based or functional assay"}, "[10]": {"target": "T1, HA of ca A/swine/Missouri/06 (H2N3) virus (influenza A virus)", "experiment": "cell-based or functional assay"}, "[11]": {"target": "HA of ca A/Brit. Columbia/CN-6/04 (H7N3-LP) virus (influenza A virus)", "experiment": "cell-based or functional assay"}, "[12]": {"target": "HA of ca A/teal/Hong Kong/W312/97 (H6N1) virus (influenza A virus)", "experiment": "cell-based or functional assay"}, "[13]": {"target": "HA of ca A/Perth/16/09 (H3N2) virus (influenza A virus)", "experiment": "cell-based or functional assay"}, "[14]": {"target": "HA of A/Kawasaki/9/86 (H1N1) virus (influenza A virus)", "experiment": "cell-based or functional assay"}, "[15]": {"target": "HA of ca A/chicken/Hong Kong/G9/97 (H9N2) virus (influenza A virus)", "experiment": "cell-based or functional assay"}, "[16]": {"target": "HA of ca A/Vietnam/1203/04 (H5N1) virus (influenza A virus)", "experiment": "cell-based or functional assay"}, "[17]": {"target": "HA of ca A/Panama/2007/99 (H3N2) virus (influenza A virus)", "experiment": "cell-based or functional assay"}, "[18]": {"target": "HA of A/Victoria/361/11 (H3N2) virus (influenza A virus)", "experiment": "cell-based or functional assay"}, "[19]": {"target": "HA of A/Wisconsin/67/05 (H3N2) virus (influenza A virus)", "experiment": "cell-based or functional assay"}, "HA of H1-BS10 virus": {"target": "HA of H1-BS10 virus", "experiment": "cell-based or functional assay"}, "[20]": {"target": "HA of ca A/Netherlands/219/03 (H7N7) virus (influenza A virus)", "experiment": "cell-based or functional assay"}, "[21]": {"target": "T2, HA of H3-LA87 (A/Los Angeles/7/09 (H3N2)) virus (influenza A virus)", "experiment": "cell-based or functional assay"}, "[22]": {"target": "HA of ca A/Beijing/262/95 (H1N1) virus (influenza A virus)", "experiment": "cell-based or functional assay"}, "[23]": {"target": "HA of ca A/Anhui/1/13 (H7N9) virus (influenza A virus)", "experiment": "cell-based or functional assay"}, "[24]": {"target": "HA of A/Hong Kong/8/68 (H3N2) virus (influenza A virus)", "experiment": "cell-based or functional assay"}, "[25]": {"target": "HA of ca A/Japan/57 (H2N2) virus (influenza A virus)", "experiment": "cell-based or functional assay"}, "[26]": {"target": "HA of A/Fort Monmouth/1/47 (H1N1) virus (influenza A virus)", "experiment": "cell-based or functional assay"}, "[27]": {"target": "HA of A/Victoria/3/75 (H3N2) virus (influenza A virus, UniProt P03435 17-567)", "sequence (P03435 17-567 limits assumed)": "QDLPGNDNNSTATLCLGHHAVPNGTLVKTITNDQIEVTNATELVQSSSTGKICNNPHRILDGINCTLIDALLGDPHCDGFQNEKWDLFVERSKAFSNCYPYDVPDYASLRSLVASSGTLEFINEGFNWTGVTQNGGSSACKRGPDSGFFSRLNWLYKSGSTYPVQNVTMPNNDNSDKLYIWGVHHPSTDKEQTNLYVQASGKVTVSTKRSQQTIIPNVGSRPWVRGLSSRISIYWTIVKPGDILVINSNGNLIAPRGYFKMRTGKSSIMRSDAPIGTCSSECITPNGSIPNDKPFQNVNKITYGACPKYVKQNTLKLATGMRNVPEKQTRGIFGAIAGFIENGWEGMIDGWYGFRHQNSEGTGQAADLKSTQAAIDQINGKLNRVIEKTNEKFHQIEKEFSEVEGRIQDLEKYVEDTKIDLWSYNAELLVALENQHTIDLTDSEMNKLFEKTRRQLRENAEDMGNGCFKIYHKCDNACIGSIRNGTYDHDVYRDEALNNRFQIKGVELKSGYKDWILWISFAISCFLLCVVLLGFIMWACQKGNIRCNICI", "experiment": "cell-based or functional assay"}, "[28]": {"target": "HA of ca A/Texas/36/91 (H1N1) virus (influenza A virus)", "experiment": "cell-based or functional assay"}, "[29]": {"target": "HA of ca A/mallard/Alberta/89/85 (H6N2) virus (influenza A virus)", "experiment": "cell-based or functional assay"}, "[30]": {"target": "HA of A/New Jersey/8/76 (H1N1) virus (influenza A virus)", "experiment": "cell-based or functional assay", "remark": "listed apart in the source"}, "[31]": {"target": "T1, HA of ca A/swine/Missouri/06 (H2N3) …", "experiment": "cell-based or functional assay", "remark": "listed apart in the source"}, "[32]": {"target": "HA of ca A/Perth/16/09 (H3N2) virus (influenza A virus)", "experiment": "cell-based or functional assay", "remark": "listed apart in the source"}, "[33]": {"target": "HA of ca A/Vietnam/1203/04 (H5N1) virus (influenza A virus)", "experiment": "cell-based or functional assay", "remark": "listed apart in the source"}, "[34]": {"target": "HA of ca A/Panama/2007/99 (H3N2) virus (influenza A virus)", "experiment": "cell-based or functional assay", "remark": "listed apart in the source"}, "[35]": {"target": "T2, HA of H3-LA87 (A/Los Angeles/7/09 …)", "experiment": "cell-based or functional assay", "remark": "listed apart in the source"}, "[36]": {"target": "HA of A/Hong Kong/8/68 (H3N2) virus (influenza A virus)", "experiment": "cell-based or functional assay", "remark": "listed apart in the source"}, "[37]": {"target": "HA of A/Wyoming/03/03 (H3N2) virus (influenza A virus)", "experiment": "cell-based or functional assay"}}, "note": "Where two headings read alike, the source gives them in different places.", "data": [{"binder": "B1", "values": [{"measurement": "binding result", "setting": "[1]", "value": "no binding (tested: 5 ug/ml)"}, {"measurement": "binding result", "setting": "[2]", "value": "binds"}, {"measurement": "binding result", "setting": "[3]", "value": "binds"}, {"measurement": "binding result", "setting": "[4]", "value": "binds"}, {"measurement": "binding result", "setting": "[5]", "value": "binds"}, {"measurement": "Neutralization IC50, H1-Ncal99", "setting": "[6]", "value": 1.16, "unit": "µg/mL"}, {"measurement": "Neutralization IC50, H3-Syd97", "setting": "[7]", "value": 6.5, "unit": "µg/mL"}, {"measurement": "Neutralization IC50, H1-NJ76", "setting": "[8]", "value": 0.57, "unit": "µg/mL"}, {"measurement": "Neutralization IC50, H5-HK03", "setting": "[9]", "value": 0.71, "unit": "µg/mL"}, {"measurement": "Neutralization IC50, H2-MO06", "setting": "[10]", "value": 1.09, "unit": "µg/mL"}, {"measurement": "Neutralization IC50, H7-BC04", "setting": "[11]", "value": 2.95, "unit": "µg/mL"}, {"measurement": "Neutralization IC50, H6-HK97", "setting": "[12]", "value": 0.63, "unit": "µg/mL"}, {"measurement": "Neutralization IC50, H3-Perth09", "setting": "[13]", "value": 1.3, "unit": "µg/mL"}, {"measurement": "Neutralization IC50, H1-Kaw86", "setting": "[14]", "value": 1.01, "unit": "µg/mL"}, {"measurement": "Neutralization IC50, H9-HK97", "setting": "[15]", "value": 1.18, "unit": "µg/mL"}, {"measurement": "Neutralization IC50, H5-VM04", "setting": "[16]", "value": 1.19, "unit": "µg/mL"}, {"measurement": "Neutralization IC50, H3-Pa99", "setting": "[17]", "value": 9, "unit": "µg/mL"}, {"measurement": "Neutralization IC50, H3-VC11", "setting": "[18]", "value": 3.4, "unit": "µg/mL"}, {"measurement": "Neutralization IC50, H3-Wl05", "setting": "[19]", "value": 2.62, "unit": "µg/mL"}, {"measurement": "Neutralization IC50, H1-BS10", "setting": "HA of H1-BS10 virus", "value": 2.16, "unit": "µg/mL"}, {"measurement": "Neutralization IC50, H7-NLD03", "setting": "[20]", "value": 4.74, "unit": "µg/mL"}, {"measurement": "Neutralization IC50, H3-LA87", "setting": "[21]", "value": 2.04, "unit": "µg/mL"}, {"measurement": "Neutralization IC50, H1-BJ95", "setting": "[22]", "value": 2.98, "unit": "µg/mL"}, {"measurement": "Neutralization IC50, H7-ANU13", "setting": "[23]", "value": 4.26, "unit": "µg/mL"}, {"measurement": "Neutralization IC50, H3-HK68", "setting": "[24]", "value": 1.37, "unit": "µg/mL"}, {"measurement": "Neutralization IC50, H2-JP57", "setting": "[25]", "value": 0.46, "unit": "µg/mL"}, {"measurement": "Neutralization IC50, H1-FM47", "setting": "[26]", "value": 1.04, "unit": "µg/mL"}, {"measurement": "Neutralization IC50, H3-Vic75", "setting": "[27]", "value": 1.12, "unit": "µg/mL"}, {"measurement": "Neutralization IC50, H1-TX91", "setting": "[28]", "value": 0.92, "unit": "µg/mL"}, {"measurement": "Neutralization IC50, H6-AB85", "setting": "[29]", "value": 0.69, "unit": "µg/mL"}, {"measurement": "Neutralization IC50, H1-NJ76", "setting": "[30]", "value": 1.41, "unit": "µg/mL"}, {"measurement": "Neutralization IC50, H2-MO06", "setting": "[31]", "value": 2.27, "unit": "µg/mL"}, {"measurement": "Neutralization IC50, H3-Perth09", "setting": "[32]", "value": 1.49, "unit": "µg/mL"}, {"measurement": "Neutralization IC50, H5-VM04", "setting": "[33]", "value": 2.11, "unit": "µg/mL"}, {"measurement": "Neutralization IC50, H3-Pa99", "setting": "[34]", "value": 17.7, "unit": "µg/mL"}, {"measurement": "Neutralization IC50, H3-LA87", "setting": "[35]", "value": 4.19, "unit": "µg/mL"}, {"measurement": "Neutralization IC50, H3-HK68", "setting": "[36]", "value": 0.68, "unit": "µg/mL"}, {"measurement": "Neutralization IC50, H3-Wy03", "setting": "[37]", "value": 0.63, "unit": "µg/mL"}]}]}
